# Assay results taken from patent US20170290886A1, “TREATMENT OF NEURODEVELOPMENTAL DISORDERS” (Academia Sinica, priority 2016, published 2017).
# B1: SENP1: an enzyme that removes the sumo molecule from sumo-conjugated protein (protein, UniProt Q9P0U3 1-644, looked up)
# Sentrin-specific protease 1: MDDIADRMRMDAGEVTLVNHNSVFKTHLLPQTGFPEDQLSLSDQQILSSRQGHLDRSFTCSTRSAAYNPSYYSDNPSSDSFLGSGDLRTFGQSANGQWRNSTPSSSSSLQKSRNSRSLYLETRKTSSGLSNSFAGKSNHHCHVSAYEKSFPIKPVPSPSWSGSCRRSLLSPKKTQRRHVSTAEETVQEEEREIYRQLLQMVTGKQFTIAKPTTHFPLHLSRCLSSSKNTLKDSLFKNGNSCASQIIGSDTSSSGSASILTNQEQLSHSVYSLSSYTPDVAFGSKDSGTLHHPHHHHSVPHQPDNLAASNTQSEGSDSVILLKVKDSQTPTPSSTFFQAELWIKELTSVYDSRARERLRQIEEQKALALQLQNQRLQEREHSVHDSVELHLRVPLEKEIPVTVVQETQKKGHKLTDSEDEFPEITEEMEKEIKNVFRNGNQDEVLSEAFRLTITRKDIQTLNHLNWLNDEIINFYMNMLMERSKEKGLPSVHAFNTFFFTKLKTAGYQAVKRWTKKVDVFSVDILLVPIHLGVHWCLAVVDFRKKNITYYDSMGGINNEACRILLQYLKQESIDKKRKEFDTNGWQLFSKKSQEIPQQMNGSDCGMFACKYADCITKDRPINFTQQHMPYFRKRMVWEILHRKLL
# modifications: GST tag
# notes: an enzyme that removes the sumo molecule from sumo-conjugated protein
# Biological target: T1, MeCP2 (Homo sapiens, UniProt P51608)
# T1 construct: GST; purchased Prospec
# T1 sequence (P51608 whole entry, species assumed): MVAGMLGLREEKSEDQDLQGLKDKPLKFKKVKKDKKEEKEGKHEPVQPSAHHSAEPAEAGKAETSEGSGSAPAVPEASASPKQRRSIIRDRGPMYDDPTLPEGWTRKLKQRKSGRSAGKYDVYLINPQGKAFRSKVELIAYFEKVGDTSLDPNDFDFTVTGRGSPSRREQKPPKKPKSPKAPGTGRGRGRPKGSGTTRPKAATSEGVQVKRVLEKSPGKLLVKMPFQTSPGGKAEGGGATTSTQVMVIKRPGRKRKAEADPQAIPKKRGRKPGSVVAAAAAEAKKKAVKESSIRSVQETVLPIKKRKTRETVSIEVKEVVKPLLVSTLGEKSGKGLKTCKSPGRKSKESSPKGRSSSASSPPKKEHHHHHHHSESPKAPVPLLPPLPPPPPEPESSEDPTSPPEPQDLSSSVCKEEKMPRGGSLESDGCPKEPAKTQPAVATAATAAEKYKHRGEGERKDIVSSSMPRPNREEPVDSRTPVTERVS
# Assay: In vitro SUMOylation assay with recombinant proteins
# Type: biochemical
# Settings: E1, E2, PIAS1 and MeCP2 proteins added; FIG. 1a
# Experimental: In vitro SUMOylation assay was performed by using the SUMO link kit according to the manufacturer's instructions (Active Motif, Carlsbad, Calif.). Recombinant GST-tagged MeCP2 protein (Prospec, East Brunswick, N.J.), His-tagged PIAS1 protein purified from His-bind resin (Novagen, Wis.), and GST-tagged SENP1 protein (Enzo, Ann Arbor, Mich.) were used for assays at 30° C. for 3 h and then boiled in Laemmli sample buffer at 95° C. for 10 min. The in vitro SUMOylation product was subject to 8% SDS-PAGE followed by transferring onto the NC membrane. The membrane was immunoblotted with anti-His and anti-GST antibodies.
molecule,measurement,value
B1,MeCP2 SUMOylation,blocked
